Results on 1 molecule are retold here after patent EP4660202A1.

The target in assay [1] is T1, huTregL1-his (human) (UniProt Q96JA1).
T1 sequence: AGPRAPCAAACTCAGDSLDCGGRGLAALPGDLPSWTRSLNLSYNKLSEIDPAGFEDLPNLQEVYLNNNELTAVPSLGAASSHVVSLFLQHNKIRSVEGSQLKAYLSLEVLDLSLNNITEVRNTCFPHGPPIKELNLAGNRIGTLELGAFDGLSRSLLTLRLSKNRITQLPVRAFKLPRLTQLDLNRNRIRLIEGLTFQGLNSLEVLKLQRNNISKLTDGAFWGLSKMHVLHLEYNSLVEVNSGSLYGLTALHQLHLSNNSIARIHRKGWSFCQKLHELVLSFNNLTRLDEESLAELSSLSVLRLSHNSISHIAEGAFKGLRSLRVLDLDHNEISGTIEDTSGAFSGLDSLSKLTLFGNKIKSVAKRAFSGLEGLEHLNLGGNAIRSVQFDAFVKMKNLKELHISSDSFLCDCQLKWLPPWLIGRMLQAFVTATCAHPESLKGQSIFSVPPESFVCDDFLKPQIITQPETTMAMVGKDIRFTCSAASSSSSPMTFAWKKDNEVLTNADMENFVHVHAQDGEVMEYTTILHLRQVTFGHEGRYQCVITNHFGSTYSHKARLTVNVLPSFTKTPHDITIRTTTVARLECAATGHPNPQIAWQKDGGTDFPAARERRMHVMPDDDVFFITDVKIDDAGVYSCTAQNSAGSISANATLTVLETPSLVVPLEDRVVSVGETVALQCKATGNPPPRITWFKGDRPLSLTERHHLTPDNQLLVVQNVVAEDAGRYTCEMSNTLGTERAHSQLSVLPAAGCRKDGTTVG
Kind of assay: covalent labelling MS (DEPC), sequence D111-L134 of huTregL1-his, chymotrypsin-treated group, antigen alone against antigen+antibody.

Assay [2] has as its target T1, huTregL1-his (human). Kind of assay: covalent labelling MS (DEPC), sequence Q542-Y553 of huTregL1-his, chymotrypsin-treated group, antigen alone against antigen+antibody.
The target of assay [3] is T1, huTregL1-his (human). Description: cross-linking MS (DSBU), sequence S90-L101 of huTregL1-his, chymotrypsin or trypsin.
Assay [4] has as its target T1, huTregL1-his (human). Kind of assay: cross-linking MS (DSBU), sequence N211-W222 of huTregL1-his, chymotrypsin or trypsin.
Assay [5] concerns the target T1, huTregL1-his (human). Description: cross-linking MS (DSBU), sequence L88-K92 of huTregL1-his, chymotrypsin or trypsin.
Assay [6] has as its target T1, huTregL1-his (human). Kind of assay: cross-linking MS (DSBU), sequence S362-K365 of huTregL1-his, trypsin-treated group.
Assay [7] addresses T1, huTregL1-his (human). Kind of assay: covalent labelling MS (DEPC), sequence E62-L101 of huTregL1-his, antigen alone against antigen+antibody.

B1: GTC210-03 clone (antibody, mouse IgG2a, V domains shown)
VH: EVQLLESGGGLVQPGGSLRLSCAASGFTFSSYDMSWVRQAPGKGLEWVSGISPDGSNIYYADSVKGRFTISRDNSKNTLYLQMNSLRAEDTAVYYCAKVGLRCRYEACSYAYGMDVWGQGTLVTVSS
VL: QSVLTQPPSASGTPGQRVTISCSGSSSNIGSNYVSWYQQLPGTAPKLLIYSDSHRPSGVPDRFSGSKSGTSASLAISGLRSEDEADYYCATWDSSLNGYVFGGGTKLTVLR
Consider B1, for which the labeling decrease (%) with huTregL1-his (human) [1] is 15.3%; with huTregL1-his (human) [2] it was 14.7%; with huTregL1-his (human) [7], 13.2%. Moreover, the T% (peptides of the same sequence detected in the test sample compared to the control) is less than 2% with huTregL1-his (human) [3], less than 2% with huTregL1-his (human) [4], less than 2% in the assay with huTregL1-his (human) [5] and 0% in the assay with huTregL1-his (human) [6].
